From patent publication US12491161B2, “Single vial vaccine formulations” (priority 2013, dated 2025)

Experiments:
[1] = Emulsion particle size and polydispersity by dynamic light scattering (DLS); format: physicochemical
Method: Emulsion particle size, polydispersity (PdI), and zeta potential were evaluated using dynamic light scattering (DLS) on a Malvern (Worcestershire, UK) Nano-ZS. Measurements were performed generally as previously described (Fox et al., 2011, Pharmaceutical Development and Technology, 16(5):511-519). Briefly, all DLS size measurements were performed in 10^−2 dilutions into 20 nm filtered water (described above) and evaluated in triplicate on single aliquots. For zeta-potential measurements, the same aliquot was evaluated using triplicate measurements and an automatic software determination of the measurement duration between 20 and 40 runs.
Particle size, polydispersity, and zeta potential measurements were made as described previously (Fox et al., 2008, Colloids and Surfaces B: Biointerfaces, 65:98-105) using a Malvern (Worcestershire, UK) Nano-ZS after 100 times dilution into ultrapure water filtered through a 20 nm Whatman (Maidstone, Kent, UK) Anotop plus filter. Nanoparticle tracking analysis was performed with a NanoSight LM10 (Amesbury, UK) with a 405 nm laser and a Hamamatsu Orca Flash 2.8 CMOS camera (Hamamatsu, JP). Samples were diluted 1:105 in 20-nm filtered ultrapure water in three steps. Each sample was diluted and analyzed four times, independently, to account for dilution error. Ninety seconds of video were recorded for each sample with optimized shutter and gain settings. The camera histogram gating was adjusted to maximize sensitivity. Data analysis was performed using NanoSight NTA 2.3 software (Wiltshire, UK) in standard mode.

[2] = Stability under continuous cold-chain maintenance; format: physicochemical; details: 4° C.

B1: ID93: recombinant tandem fusion protein antigen of Mtb Rv3619, Rv1813, Rv3620 and Rv2608 (SEQ ID NO: 1 or 2) (protein)
chain: MGSSHHHHHHSSGLVPRGSHMTINYQFGDVDAHGAMIRAQAGSLEAEHQAIISDVLTASDFWGGAGSAACQGFITQLGRNFQVIYEQANAHGQKVQAAGNNMAQTDSAVGSSWAGTHLANGSMSEVMMSEIAGLPIPPIIHYGAIAYAPSGASGKAWHQRTPARAEQVALEKCGDKTCKVVSRFTRCGAVAYNGSKYQGGTGLTRRAAEDDAVNRLEGGRIVNWACNELMTSRFMTDPHAMRDMAGRFEVHAQTVEDEARRMWASAQNISGAGWSGMAEATSLDTMTQMNQAFRNIVNMLHGVRDGLVRDANNYEQQEQASQQILSSVDINFAVLPPEVNSARIFAGAGLGPMLAAASAWDGLAEELHAAAGSFASVTTGLAGDAWHGPASLAMTRAASPYVGWLNTAAGQAAQAAGQARLAASAFEATLAATVSPAMVAANRTRLASLVAANLLGQNAPAIAAAEAEYEQIWAQDVAAMFGYHSAASAVATQLAPIQEGLQQQLQNVLAQLASGNLGSGNVGVGNIGNDNIGNANIGFGNRGDANIGIGNIGDRNLGIGNTGNWNIGIGITGNGQIGFGKPANPDVLVVGNGGPGVTALVMGGTDSLLPLPNIPLLEYAARFITPVHPGYTATFLETPSQFFPFTGLNSLTYDVSVAQGVTNLHTAIMAQLAAGNEVVVFGTSQSATIATFEMRYLQSLPAHLRPGLDELSFTLTGNPNRPDGGILTRFGFSIPQLGFTLSGATPADAYPTVDYAFQYDGVNDFPKYPLNVFATANAIAGILFLHSGLIALPPDLASGVVQPVSSPDVLTTYILLPSQDLPLLVPLRAIPLLGNPLADLIQPDLRVLVELGYDRTAHQDVPSPFGLFPDVDWAEVAADLQQGAVQGVNDALSGLGLPPPWQPALPRLFST
- effect of heat stress on particle size ([1]; 50° C. for 30 days): reduced the average particle size observed; however, this was not statistically significant
- effect of heat stress on polydispersity ([1]; 50° C. for 30 days, liquid or lyophilized formats): did not affect the polydispersity
- particle size (Z-average diameter) ([1]; unstressed): approximately 70 nm
- stability under continuous cold-chain maintenance [2]: stable for more than a year
